In the supplement of paper PMC10126150:
± gives the standard deviation of the averaged measurements.

tested on: ATP; experiment: switch fluorescence ratio, 500 uM ATP over buffer (Cy3 cluster intensity, sum of 5 cycles each) (fold (ratio)); higher = stronger signal-on switching upon ATP binding; sequences stand for … in TCGTCGGCAGCGTCAGATGTGTATAAGAGACAGTTTTTTTTTTTTTTTTTTTTTTTTT…TC; details: aptamer strand: ATP DNA aptamer (quencher-CACCTGGGGGAGTATTGCGGAGGAAGG + anchor), 100 nM annealed; ATP concentration: 500 uM
Method in brief: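 Per cluster, summed Cy3 intensity from the target cycles was divided by that from the buffer cycles to give the fluorescence ratio, then averaged per switch-domain sequence. Clusters outside 100-1000 RFU were excluded. The Cy3-labelled switching-strand clusters, on a modified Illumina MiSeq flow-cell, were annealed to 100 nM quencher-labelled ATP aptamer and imaged in selection buffer, then after 15 min with 500 uM ATP at 22 °C, for five cycles with NaOH stripping and re-annealing between them.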
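Further: ATP exposure 15 min at 22 °C before imaging.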

Point of comparison: TGCCGGGTGG, switch fluorescence ratio 1 ± 0.063. Against it:
- TCTGGTTGCG — the same, 1 ± 0.037
- GGAGTGGTTC — within error, 0.999 ± 0.013
- GTGTCCCCTG — within error, 0.981 ± 0.04
- AGGGACTGGT — within error, 1.01 ± 0.036
- CATTTTAGTG — the same, 1 ± 0.0021
- GGTGTGCCAA — the same, 1 ± 0.022
- AGTGCAGAGA — within error, 0.989 ± 0.028
- TTTGGGATTT — within error, 1.04 ± 0.15
- CAGTTCATTA — within error, 0.9976 ± 0.0031
- ATGTGGCTGA — within error, 1.021 ± 0.0038
- GAGGGTTTTG — within error, 0.9768 ± 0.0092
- TGGTTTGTAT — the same, 1 ± 0.029
- GCGCGGTGGC — higher, 1.09 ± 0.015
- CCTTGGGACG — within error, 0.992 ± 0.062
- GGTGTGACCA — within error, 1.02 ± 0.015
- GGAGGGGAGG — within error, 0.991 ± 0.029
- ATTCGACAGA — within error, 1.02 ± 0.016
- GCGGTAGACG — within error, 1.01 ± 0.021
- TTGCTAAAGG — within error, 0.964 ± 0.016
- CTACTGGGGA — within error, 1.05 ± 0.036
- GCCGCTGATG — within error, 0.982 ± 0.028
- AGGGACGAAT — higher, 1.25 ± 0.092
- GGCTTCTGCT — within error, 0.959 ± 0.022
- AGGTCGTGTT — within error, 0.992 ± 0.01
- TTTGTTGCAG — within error, 0.994 ± 0.036
- TGCCAGTGCC — within error, 1.04 ± 0.022
- ATAAAGTTGA — the same, 1 ± 0.034
- TAAACGGGAC — higher, 1.11 ± 0.019
- GACAGCCCAG — the same, 1 ± 0.019
- CCAGGAAGGT — within error, 1.0204 ± 0.00069
- AGGAAGGGTT — within error, 1.05 ± 0.12
- TATATTAGCC — within error, 1.03 ± 0.039
- CATAGGGGGG — within error, 0.988 ± 0.015
- AGGCGTTGGG — within error, 1.01 ± 0.015
- GGAGGGGCGA — within error, 1.1 ± 0.14
- GTCAACTGAG — within error, 1.05 ± 0.04
- ATTTTCAACT — within error, 1.03 ± 0.018
- GGGCGGCTGT — the same, 1 ± 0.033
- AGGGGTGTGG — within error, 1.01 ± 0.017
- GGGGGGGTC — within error, 0.979 ± 0.019
- GGTGGGCGGA — within error, 1.01 ± 0.029
- TTCCGGAAGT — within error, 1.04 ± 0.04
- GAGGCGGCTG — within error, 0.994 ± 0.038
- GTCGGGGAAG — within error, 0.958 ± 0.013
- GCAATCTGGT — higher, 1.11 ± 0.026
- AGGATGATGT — within error, 1.01 ± 0.032
- GACTTATGAG — within error, 1.01 ± 0.047
- TGAGAAATTA — within error, 1.05 ± 0.014
- AAGAATATGT — within error, 0.9756 ± 0.008
- TAATTGACCG — higher, 1.091 ± 0.0088
- CTAGGCAGGG — within error, 1.01 ± 0.005
- CTGTGAGTTA — within error, 0.97 ± 0.038
- GGAGCTGCGG — within error, 0.9914 ± 0.0038
- AAGGTGGTTG — within error, 0.969 ± 0.016
- GGGCACTGGT — within error, 1.04 ± 0.032
- GGCGTTGCGG — within error, 0.9849 ± 0.0058
- AGGCGGGTAT — within error, 1.015 ± 0.0028
- TATAGTGGAG — within error, 1.024 ± 0.0069
- GTTGGGCCGG — within error, 0.987 ± 0.021
- ACATCAAGGG — within error, 1.06 ± 0.055
- GGGGTACAGG — within error, 1.005 ± 0.0055
- GGTACGAAAG — within error, 1.01 ± 0.026
- ATCAGGAAGT — within error, 0.992 ± 0.062
- AGATTGGACG — within error, 1.02 ± 0.024
- GTTATGGGGG — within error, 1.04 ± 0.013
- TTTTTGTTTC — within error, 1.02 ± 0.046
- GTGCTTCTTT — within error, 0.99 ± 0.011
- ATCAATATGT — within error, 0.996 ± 0.029
- GGGAGTGAGG — within error, 1.01 ± 0.011
- TTCTGTGGGG — within error, 1.01 ± 0.017
- TAAAATGAGG — within error, 0.987 ± 0.043
- TTAGAATTCC — within error, 1.1 ± 0.091
- ACTTAAATTA — within error, 1.03 ± 0.036
- TCTTTATGTG — within error, 0.998 ± 0.016
- GGGAACTTGG — within error, 0.986 ± 0.0099
- GCTGGAAGTA — within error, 0.97 ± 0.046
- CGGGCGCAGT — within error, 1.02 ± 0.043
- AGGCGGGTGG — within error, 1.03 ± 0.019
- ACGTGGGGTC — within error, 1.02 ± 0.022
- ATGGGCGGGC — within error, 1.01 ± 0.03
- TACGTAACAG — higher, 1.24 ± 0.064
- AGGTACGCTC — within error, 0.99314 ± 0.00048
- TGAGATGGGG — within error, 0.99 ± 0.021
- TGCCCGGGGA — the same, 1 ± 0.037
- TAGCATGGGG — within error, 0.991 ± 0.016
- GGGAATAGCT — within error, 0.999 ± 0.03
- CGGGATCTGT — within error, 1.01 ± 0.024
- TCGGGGTTTA — within error, 0.994 ± 0.059
- GGGGGAGATT — within error, 0.977 ± 0.02
- TTTCCCGCTC — higher, 1.93 ± 0.33
- TACGGGGATG — within error, 0.9963 ± 0.0056
- TTTTTTTTGC — within error, 1.02 ± 0.092
- GGGGAGGTAA — within error, 0.973 ± 0.012
- TGAGACTAGT — within error, 0.989 ± 0.023
- CGTGGGGCGG — within error, 0.999 ± 0.016
- ACGTCTTCAC — higher, 1.069 ± 0.002
- CGGCTGTCAC — within error, 1.03 ± 0.025
- AGGGGCATTC — within error, 1.03 ± 0.064
- ATGATTAGCT — the same, 1.0032 ± 0.00021
- GTTGGTAGGT — within error, 0.997 ± 0.019
- CCAACAGGGA — higher, 1.112 ± 0.0014
- CAAGGGTTGT — within error, 0.992 ± 0.0024
- TGTATATGG — within error, 0.958 ± 0.016
- TAGGTGACTG — within error, 0.982 ± 0.037
- AGCCAGTTTT — within error, 0.9892 ± 0.0073
- CGCTGTTTTT — within error, 1.02 ± 0.024
- AACAGTTTGT — the same, 1 ± 0.017
- ACCGTGTTAT — within error, 0.9583 ± 0.0037
- ACAGGTTAGT — within error, 0.989 ± 0.034
- TTGGGCTTGC — within error, 1.04 ± 0.029
- GCTGCCGTGT — within error, 0.967 ± 0.064
- TGGCAATTTG — the same, 1 ± 0.033
- ATTTGCTTGT — within error, 1.01 ± 0.021
- GCATGGTTTT — within error, 0.975 ± 0.029
- GTCAGTGCTA — within error, 1.0169 ± 0.001
- TTTCGTGGCA — within error, 1.02 ± 0.066
- GCGGGAAGGG — within error, 0.995 ± 0.033
- ACTGGGGATT — within error, 1.04 ± 0.036
- TGCTGAAAAC — within error, 0.974 ± 0.028
- TCATTGGTTA — within error, 1.02 ± 0.042
- TTGGTGGTCT — within error, 1.05 ± 0.075
- CGGGAACGGT — within error, 1.01 ± 0.026
- TTATTATCAG — within error, 1.013 ± 0.0021
- TTCGGCTTGA — within error, 0.994 ± 0.028
- TTGGAGGTTC — within error, 0.99 ± 0.063
- GTGTTTGACA — within error, 0.9604 ± 0.005
- ACATTGTGTA — within error, 0.9955 ± 0.0068
- GTTCTTGCGG — within error, 0.959 ± 0.022
- AAGATTCGCC — within error, 0.993 ± 0.012
- TACCGGGGAG — within error, 1.021 ± 0.0045
- AATTGTGAGT — within error, 0.985 ± 0.024
- TTAGGGGGTG — within error, 1.01 ± 0.025
- AATTTTTGAT — within error, 0.979 ± 0.037
- GATGTCATTT — within error, 0.987 ± 0.024
- AGGAGCTGGT — within error, 1.02 ± 0.012
- TATTATTTTT — within error, 0.998 ± 0.026
- CGTTTAGTAG — within error, 1.03 ± 0.013
- CGCGTTGGCA — within error, 1.04 ± 0.028
- CGAGGGGTAG — within error, 0.996 ± 0.026
- GAGTTGGGAA — within error, 1.04 ± 0.077
- GCGGAATATG — higher, 1.13 ± 0.018
- GCGTAAGTG — within error, 0.986 ± 0.041
- GTCAGAGTGG — within error, 0.991 ± 0.024
- GGTAAATTTT — the same, 1 ± 0.018
- CGATATGGGT — within error, 0.9801 ± 0.0026
- TGGTTTAAGG — within error, 0.9844 ± 0.0088
- ATTAGTTATT — within error, 1.02 ± 0.015
- TTTGGCGTTG — within error, 0.9881 ± 0.0086
- ATTCGCGGAA — within error, 1.02 ± 0.029
- CCACATTGGA — the same, 1.001 ± 0.01
- GAACTGATGT — the same, 1 ± 0.018
- CCTGGGGGGT — within error, 1.06 ± 0.13
- TTGGGCACGG — within error, 0.991 ± 0.0052
- GCGCGAAGGA — within error, 1.03 ± 0.053
- GGACAGTGAT — within error, 1.01 ± 0.034
- CAGCTCCCGG — within error, 1.07 ± 0.039
